Results on four molecules are retold here after article PMC4780118, “Mechanisms involved in xyloglucan catabolism by the cellulosome-producing bacterium Ruminiclostridium cellulolyticum” (Scientific Reports, 2016).

One data set addresses T1, SBP2458 (Ruminiclostridium cellulolyticum, UniProt B8I622).
T1 construct: gene Ccel_2458
The data set is described as follows: isothermal titration calorimetry. Format: binding. The conditions noted are these: 150 mM NaCl, 25 mM HEPES pH 7.0, 20 °C; single-site model.

Substrate in data set [1]: O=[N+]([O-])c1ccc(O[C@@H]2O[C@H](CO)[C@H](O)[C@H](O)[C@H]2O)cc1
The data set is described as follows: purified protein. The conditions noted are these: assay as in ref. 19.

Substrate in data set [2]: O=[N+]([O-])c1ccc(O[C@@H]2O[C@H](CO)[C@@H](O)[C@H](O)[C@H]2O)cc1
In words: purified protein. The note with it: assay as in ref. 19.

Substrate in the data set “pNP release kinetics”: O=[N+]([O-])c1ccc(O[C@H]2OC[C@@H](O)[C@H](O)[C@H]2O)cc1
The data set is described as follows: pNP release kinetics. The conditions noted are these: assay as in ref. 19. It is filed as biochemical, Ruminiclostridium cellulolyticum.

T1 sequence (B8I622 entry or part of it): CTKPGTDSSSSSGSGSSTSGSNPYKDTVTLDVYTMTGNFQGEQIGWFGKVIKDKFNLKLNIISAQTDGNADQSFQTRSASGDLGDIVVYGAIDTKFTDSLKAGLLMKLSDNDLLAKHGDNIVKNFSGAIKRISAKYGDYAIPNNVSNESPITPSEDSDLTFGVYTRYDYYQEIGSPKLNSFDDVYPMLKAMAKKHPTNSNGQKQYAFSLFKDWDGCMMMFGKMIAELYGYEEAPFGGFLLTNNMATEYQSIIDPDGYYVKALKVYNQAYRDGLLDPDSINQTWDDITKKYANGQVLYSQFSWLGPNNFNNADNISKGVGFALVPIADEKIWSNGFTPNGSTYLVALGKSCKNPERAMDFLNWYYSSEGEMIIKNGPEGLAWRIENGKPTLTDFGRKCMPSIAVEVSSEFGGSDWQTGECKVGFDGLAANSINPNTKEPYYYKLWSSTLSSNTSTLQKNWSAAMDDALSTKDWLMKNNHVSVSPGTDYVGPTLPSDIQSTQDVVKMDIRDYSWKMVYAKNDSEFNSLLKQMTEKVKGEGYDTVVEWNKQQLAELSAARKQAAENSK

For orientation: Kd means the concentration at which binding is half-saturated. A low value points to higher affinity. `OC[C@H]1OC(O)[C@H](O)[C@@H](O)[C@@H]1O[C@@H]1O[C@H](CO[C@H]2OC[C@@H](O)[C@H](O)[C@H]2O)[C@@H](O[C@@H]2O[C@H](CO[C@H]3OC[C@@H](O)[C@H](O)[C@H]3O)[C@@H](O[C@@H]3O[C@H](CO[C@H]4OC[C@@H](O)[C@H](O)[C@H]4O)[C@@H](O)[C@H](O)[C@H]3O)[C@H](O)[C@H]2O)[C@H](O)[C@H]1O` (stereo partly shown) [XXXG] registered a Kd on SBP2458 of 3.65 ± 1.1 nM.

B1: Gal42A (Ruminiclostridium cellulolyticum H10) (protein)
chain: MDKYMPIGMNFPHILHGGDYNPDQWLKAPKILDEDFRLMKLAHCNVMTIGIFSWMALEPEEGKFDFSWLDEIMDKLSKNEMTAILATPSGAKPSWMSQKYPEILRTQADRLKDFHGGRHNHCLTSPIYRKKVSQINRLLAERYARHPALILWHISNEYSGECHCPLCQEAFRSFLMKKYEGDLERLNHEWWTGFWAHRYTDWSQIESPSPRGEHETHGLILDWKRFVSHQTIDFLKNEIKPLRELTPEISVTTNLMGTFPGLEYRELSKEIDVVSWDNYPTWHTSEQPDWKIGIRTSFVHDINRSLKQGKPFMMMESTPSTVNWQKVNKLKRPGMHMLSSLQAVAHGSDTVQYFQWRKSRGSFEKFHGAVVDHVGHENTRVFREVAQVGQVLEKLDEVVGTTVHPKVAIIFDWENRWAMEEAQALARDRIKYEETCVAHYTAFWKRGVSVDIIGARDNLSQYKLVIAPMLYLTHPGVGERIETFVNEGGTFVATYWSGIVNENDLCHLGGFPGPLRAVTGIWSEEIDTMHPDENNSLILSDNSLGLSGTYRVQDFCDLVHAESAEVLARYGEEFYAGRPALTVNRFGKGNAYYMAARTGEDFLEDFYNALMKKLTLSRTLDVELPCGVTSQLRTDGQNRYIFLMNFNHEKQDIQLTKGLTDMFTGEIRQGMLELAPFDVKVLKAKI
One may read the Km as the substrate concentration at which the rate is half of its maximum. Usually kcat/Km stands for the turnover number divided by the Michaelis constant. On to B1, for which, in the data set “purified protein [1]”, the Km is 1560 ± 300 µM, the kcat was 4,800 ± 320 μmol product per μmol enzyme × min^−1 and the kcat/Km is 51300 M⁻¹ s⁻¹.

B2: Glu3A (Ruminiclostridium cellulolyticum H10) (protein)
chain: MQYDQIDKKIDELLSMMTLEEKAGMCHGAGLFRTAGVPRLGIPPLVFSDGPMGIRNEFADDNWNTVGGNTDFVTYLPANTALAATFNRTLAESLGEVLGCEARGRGKDVILAPGVNIIRTPLCGRNYEYFSEDPILTAELAASFIKGVQRFDVAACVKHFAANNQETERLAVSAEVDELTLRELYFPAFEASVRAGVLTVMTAYNRLNGTFCSHSRQLITEILREEWGFNGVVVSDWGAVHDTESPAIAGLDIEMNVTSNFNEYFFAKPLINAIKDGKIPERMLDDKVRRILRLMFRLNMFSKDRKRGGFNLPQHQQAVLDAAKESFVLLKNDREVLPLNADGIKTVAVIGSNADKKHSSGGDSAAVKALYEVTPLSGIVMRLASGAKVTYYPGCPDETHYKEEFHIPSNADEKTRADIEEKARAADEDYRKIQMRLEDEAIQAAKTADAVIFIGGNGHEQESEGRDRPDMALPYEQDKLLSRVLDANPNTVVVIISGSPVNMSGWIDKAPTVMQGFFSGMHGGTALAAVLFGDENPSGHLPFTIPLKEEETGASALGEYPGGETVCYSEGLFVGYRYHDAFNIPPLFPFGYGLSYTTFSLANESFRRLPCVGTEYEIHVDITNSGNRPGAQSVQLYVEPEKKDGSPIRTLKGFEKTYLNPDETKTITFKLDERTFSEFRPHEGWVFVPGNYTIHIGTSSRELPIAIALAL
Regarding B2, in “purified protein [2]”, the Km was determined as 44600 ± 19000 µM, the kcat is on record as 1,350 ± 164 μmol product per μmol enzyme × min^−1 and the kcat/Km was 500 M⁻¹ s⁻¹.

B3: Xyl31A (Ruminiclostridium cellulolyticum H10) (protein)
chain: MKFLNGYWMSKEGYSLYYPSEAYRIEKSGDVLRIFAPCNQINHRGDTLGGPALTIELSSPAEDVIRISVYHYKGVKKAGPYFELNTPGISPSISEDEDAVWFGSGQIKARIDKKTYNIDYYRGDERLTGSGWRHLAYIKHESGQTYMREQLDLDVGECVYGLGERFTPFVKNGQTVDIWNQDGGTCTEQSYKNIPFYITNRGYGVFVNDPGLVSFEICSEVVSRSQFSVEGESLDYFIIGGSDCKEVISNYTALTGRPAIPPAWSFGLWLSTSFTTNYDEKTVTSFINGMSKRRIPLSVFHFDCFWMKEFNWCDFIWDKDVFPDPKKMLSKLKEKGLHICVWINSYVSQESVLFDEGMQKGYFIHKKNGSVWQWDMWQPGMAIVDFTNPDACNWFSQKLLNLVDMGVDCFKTDFGERIPTEDVVYYDGSDPVKMHNFYTYLYNRTVFDTLKQVGKEAVVFARSATAGSQKFPVHWGGDCTADFSSMAESLRGGLSLGLCGFGFWSHDIGGFEQTATADVYKRWLAFGMLSSHSRLHGSTGYRVPWLYDEEAVDVLRFFANLKCRLMPYIYKTAIQASQQGLPSARAMFVEFPEDPACTTLDRQYMLGDSLLVAPVFSKSGLVEYYLPLGEWYNLLTGEIVTGGSYRKEKHNYMSLPLFVRPGSLLAIGDNEEETVYEYAQGVRLLLTPLADGYEASTSVYEKDGHEALNVTVNRKESDITVIAEGDGKPWSIKLCGITAKGCTGGTIEKEQDGIVFMPGNSTGSYTVRIL
notes: C-terminal His6 (pET28a); E. coli BL21(DE3)
B3: in “pNP release kinetics”, the Km is 1290 ± 150 µM, the kcat is listed as 12 ± 1.2 μmol product per μmol enzyme × min^−1 and the kcat/Km was found to be 155 M⁻¹ s⁻¹.
